Laboratory results as given in the supplement of paper PMC10126150.
± gives the standard deviation of the averaged measurements.
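Note: ATP exposure 15 min at 22 °C before imaging.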

The sequences below were run on ATP (assay: switch fluorescence ratio, 500 uM ATP over buffer (Cy3 cluster intensity, sum of 5 cycles each) (fold (ratio)); higher = stronger signal-on switching upon ATP binding; sequences stand for … in TCGTCGGCAGCGTCAGATGTGTATAAGAGACAGTTTTTTTTTTTTTTTTTTTTTTTTT…TC). Conditions: aptamer strand: ATP DNA aptamer (quencher-CACCTGGGGGAGTATTGCGGAGGAAGG + anchor), 100 nM annealed; ATP concentration: 500 uM.
In short: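 Between each of five buffer/ATP cycles, the flow-cell was stripped with NaOH and re-annealed. Each cycle imaged Cy3-labelled switching-strand clusters, annealed to 100 nM quencher-labelled ATP aptamer on a modified Illumina MiSeq flow-cell, first in selection buffer and then after 15 min with 500 uM ATP at 22 °C. The fluorescence ratio is summed target-cycle over summed buffer-cycle Cy3 intensity per cluster, averaged per switch-domain sequence, with clusters outside 100-1000 RFU excluded.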
In the case of TGGGTCTACT, the switch fluorescence ratio is reported as 0.9761 ± 0.0084. Work on TTGTGAGGCA yielded a switch fluorescence ratio of 1.006 ± 0.0066. For AAAGGCAAAG, the switch fluorescence ratio was 0.9971 ± 0.0082. In the case of CGGGGCGGGG, the switch fluorescence ratio is reported as 0.985 ± 0.012. With TAAGTGGGGT the switch fluorescence ratio was 0.979 ± 0.026. With GCGAGTTATG the switch fluorescence ratio was 1.03 ± 0.031. Work on TTAAAAGTTT yielded a switch fluorescence ratio of 0.994 ± 0.043. TAATTTTGTG gave a switch fluorescence ratio of 0.975 ± 0.044. Sequence GATAGATCAC has a switch fluorescence ratio of 1.03 ± 0.03. AGGGGTACTG was tested, and the switch fluorescence ratio was 1.01 ± 0.099. CCAGATAACG showed a switch fluorescence ratio of 1.04 ± 0.022. Sequence TGTTGAGTTT has a switch fluorescence ratio of 0.994 ± 0.027. GGTTGGGGGT showed a switch fluorescence ratio of 1.01 ± 0.045. In the case of AAGTTTTCGC, the switch fluorescence ratio is reported as 0.9789 ± 0.0067. Sequence GCGTTTGTGC has a switch fluorescence ratio of 1.007 ± 0.01. CGGGGCACTG was tested, and the switch fluorescence ratio was 0.997 ± 0.018. GGGGGGTGGG gave a switch fluorescence ratio of 0.996 ± 0.039. Work on GTTATCAGGG yielded a switch fluorescence ratio of 0.995 ± 0.026. ATACTTGGCT gave a switch fluorescence ratio of 0.992 ± 0.02. TGCGGCGAGG was tested, and the switch fluorescence ratio was 1.016 ± 2e-05. TGCTGGATTT was tested, and the switch fluorescence ratio was 0.991 ± 0.016. For AGATGTTGGG, the switch fluorescence ratio was 0.992 ± 0.07. TTAGTTGGTA showed a switch fluorescence ratio of 0.987 ± 0.001. TTCGGAATTT gave a switch fluorescence ratio of 0.9882 ± 0.0083. Work on GGGGTGAC yielded a switch fluorescence ratio of 1.0027 ± 0.00099. In the case of TTTTGAATCT, the switch fluorescence ratio is reported as 0.953 ± 0.033. Work on TAAAGAAGTG yielded a switch fluorescence ratio of 1.01 ± 0.033. For ACGTAAAGAC, the switch fluorescence ratio was 1.17 ± 0.23. For GATTTAGACG, the switch fluorescence ratio was 0.945 ± 0.06. For GAGAAAGGCT, the switch fluorescence ratio was 0.97 ± 0.019. GTGCGGAGAA gave a switch fluorescence ratio of 0.986 ± 0.035. Work on TAGTACCGGT yielded a switch fluorescence ratio of 0.991 ± 0.029. For TATGAAATAG, the switch fluorescence ratio was 0.99 ± 0.034. In the case of TCCTGGGCGG, the switch fluorescence ratio is reported as 1.077 ± 0.0028. Sequence TTGGGTTCGT has a switch fluorescence ratio of 0.998 ± 0.037. Work on TTAGTTTATC yielded a switch fluorescence ratio of 1.02 ± 0.027. In the case of CAATATAGTG, the switch fluorescence ratio is reported as 0.981 ± 0.024. For GTAAAATGGG, the switch fluorescence ratio was 0.997 ± 0.011. Work on TGACAAAG yielded a switch fluorescence ratio of 0.9776 ± 0.0029. Sequence TCCAGATTCT has a switch fluorescence ratio of 0.9828 ± 0.0086. With GGCTGTGTTT the switch fluorescence ratio was 0.981 ± 0.028. For TTGTCCTCCT, the switch fluorescence ratio was 1.11 ± 0.11. ATGTTCCTAC was tested, and the switch fluorescence ratio was 1.04 ± 0.011. With AAAGGGCAAT the switch fluorescence ratio was 1.14 ± 0.18. TTGGGGGGAG was tested, and the switch fluorescence ratio was 0.99 ± 0.027. In the case of CCGGGAGTAC, the switch fluorescence ratio is reported as 2.14 ± 0.55. For TGTCGGGGTA, the switch fluorescence ratio was 0.995 ± 0.016. In the case of ACTGATTTTG, the switch fluorescence ratio is reported as 1.01 ± 0.029. Work on GGGGAGACTG yielded a switch fluorescence ratio of 0.956 ± 0.028. ACGTCTTTGG showed a switch fluorescence ratio of 1.02 ± 0.043. With CCTGGATTTC the switch fluorescence ratio was 1.01 ± 0.077. TGGGGCAGCG showed a switch fluorescence ratio of 1.007 ± 0.0039. CAAAGAGCTT showed a switch fluorescence ratio of 1 ± 0.028. For TAAGGGCGGA, the switch fluorescence ratio was 1.01 ± 0.023. For TTGAAATAGT, the switch fluorescence ratio was 1.01 ± 0.024. AATCATGTGC gave a switch fluorescence ratio of 1 ± 0.04. In the case of TTATTAATGT, the switch fluorescence ratio is reported as 1.02 ± 0.021. For TGATCTTGGA, the switch fluorescence ratio was 1.06 ± 0.055. Work on TTTTACGTGG yielded a switch fluorescence ratio of 0.9938 ± 0.0019. Work on TCGTCCCTGT yielded a switch fluorescence ratio of 1.074 ± 0.003. CGAGTGTGGG showed a switch fluorescence ratio of 1.01 ± 0.021. Work on GAGGACTATT yielded a switch fluorescence ratio of 0.999 ± 0.046. TGCATTGGTG was tested, and the switch fluorescence ratio was 1.018 ± 0.0019. Work on ATTAACGAGG yielded a switch fluorescence ratio of 1.04 ± 0.013. For GCGCTATCTT, the switch fluorescence ratio was 1.06 ± 0.041. Sequence TATTTGATTG has a switch fluorescence ratio of 1.001 ± 0.0041. ATGCTGCGGG was tested, and the switch fluorescence ratio was 1.06 ± 0.068. GTTCGTTAGG showed a switch fluorescence ratio of 1.017 ± 0.0016. ATCGGGGCAT showed a switch fluorescence ratio of 0.98 ± 0.059. ATTGGATAAT was tested, and the switch fluorescence ratio was 0.9967 ± 0.0091. GCCATGGCTT was tested, and the switch fluorescence ratio was 1.01 ± 0.0039. Work on TTTTGGCGTA yielded a switch fluorescence ratio of 1.04 ± 0.037. In the case of AGTGTTCTCG, the switch fluorescence ratio is reported as 0.983 ± 0.017. Sequence GGATGGGAGG has a switch fluorescence ratio of 1.046 ± 0.0092. For CATCGGTGCG, the switch fluorescence ratio was 1.08 ± 0.19. Sequence TTTTTGCTCA has a switch fluorescence ratio of 0.9912 ± 0.0055. CCCCATTCCG showed a switch fluorescence ratio of 1.04 ± 0.022. Work on AAAATGCGGA yielded a switch fluorescence ratio of 0.9951 ± 0.003. For ATTGAGGATG, the switch fluorescence ratio was 1.07 ± 0.17. Sequence AAGTTTATTA has a switch fluorescence ratio of 0.964 ± 0.017. ATAGGGTGCT showed a switch fluorescence ratio of 1.04 ± 0.027. For ACGGGACTAG, the switch fluorescence ratio was 1.02 ± 0.099. Work on GATGTGCGAG yielded a switch fluorescence ratio of 1.01 ± 0.017. AAAAAATAG showed a switch fluorescence ratio of 0.985 ± 0.013. Sequence GCTTGTTGTT has a switch fluorescence ratio of 0.995 ± 0.017. With ATGTTATTG the switch fluorescence ratio was 0.973 ± 0.031. With GACGCCTAGT the switch fluorescence ratio was 1.036 ± 0.0021. With AGGAGTGTGG the switch fluorescence ratio was 1.01 ± 0.031. TTGAATTTGA showed a switch fluorescence ratio of 1 ± 0.028. TTTTTATGAT was tested, and the switch fluorescence ratio was 0.983 ± 0.022. For ATAGAGATGT, the switch fluorescence ratio was 0.978 ± 0.018. AAGGCGGATT showed a switch fluorescence ratio of 1.26 ± 0.36. Sequence TTTGCTGCGG has a switch fluorescence ratio of 1.03 ± 0.041. Work on AAATCTGCTG yielded a switch fluorescence ratio of 1 ± 0.061. In the case of ATTTAATTTT, the switch fluorescence ratio is reported as 1.02 ± 0.019. CTCGGGGGAT was tested, and the switch fluorescence ratio was 1.05 ± 0.1. CATAGAAGCT gave a switch fluorescence ratio of 0.976 ± 0.048. With TTGTCCTAGT the switch fluorescence ratio was 1.008 ± 0.0012. ATTGGGGCGT showed a switch fluorescence ratio of 0.977 ± 0.016. TTCTGGATGT gave a switch fluorescence ratio of 0.956 ± 0.023.
